These results are taken from patent publication US20050142141A1 (University of California, published 2005).

The assay has as its target T1, soluble extracellular domain (ECD) of the human insulin receptor (human, UniProt P06213 28-956, limits assumed).
T1 construct: extracellular domain; also called HIR ECD; extracellular domain of the HIR
Nature of the assay: immunoradiometric assay (IRMA) on HIR ECD with [125I]-murine 83-14 MAb as ligand. From the text:
In the IRMA, the antigen was the extracellular domain of the HIR, which was produced from transfected CHO cells and purified by lectin affinity chromatography of CHO cell conditioned medium.

Positions count from the first letter of the chain named.

B1: murine 83-14 HIRMAb (antibody, V domains shown)
VH: QVQLQESGPELVKPGALVKISCKASGYTFTNYDIHWVKQRPGQGLEWIGWIYPGDGSTKYNEKFKGKATLTADKSSSTAYMHLSSLTSEKSAVYFCAREWAYWGQGTLVTVSA
VL: DIQMTQSPSSLSASLGERVSLTCRASQDIGGNLYWLQQGPDGTIKRLIYATSSLDSGVPKRFSGSRSGSDYSLTISSLESEDFVDYYCLQYSSSPWTFGGGTKMEIKR
notes: Intact murine IgG from the 83-14 hybridoma; the murine constant regions and isotype are not; also called HIRMAb 83-14; MAb 83-14
With B1, the Kd turned out to be 2.7 nM.

B2: Version 5 humanized HIRMAb (antibody, human IgG1, V domains shown)
VH: B1 VH with Q5L, P9A, K13R, A16S, L17S, L108T
VL: DIQMTQSPSSLSASVGERVTITCRASQDIGGNLYWYQQKPGKAPKLLIYATSSLDSGVPSRFSGSGSGTDYTFTISSLQPEDIATYYCLQYSSSPWTFGQGTKVEIKR
notes: also called version 5 HIRMAb; Version 5 humanized 83-14 HIRMAb
On to B2, for which the Kd is 3.7 nM.

By Kd is commonly meant the constant that tells how readily two partners part at equilibrium.
